Laboratory results from the supplement of paper PMC10126150.
± gives the standard deviation of the averaged measurements.

Test system: ATP
Assay: switch fluorescence ratio, 500 uM ATP over buffer (Cy3 cluster intensity, sum of 5 cycles each) (fold (ratio)); higher = stronger signal-on switching upon ATP binding; sequences stand for … in TCGTCGGCAGCGTCAGATGTGTATAAGAGACAGTTTTTTTTTTTTTTTTTTTTTTTTT…TC
Details: aptamer strand: ATP DNA aptamer (quencher-CACCTGGGGGAGTATTGCGGAGGAAGG + anchor), 100 nM annealed; ATP concentration: 500 uM
Method in brief: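 Cy3-labelled switching-strand clusters on a modified Illumina MiSeq flow-cell were annealed to 100 nM quencher-labelled ATP aptamer, imaged in selection buffer, then imaged after 15 min with 500 uM ATP at 22 °C. Five buffer/ATP cycles ran, with NaOH stripping and re-annealing between them. The fluorescence ratio is summed target-cycle over summed buffer-cycle Cy3 intensity per cluster, averaged per switch-domain sequence. Clusters outside 100-1000 RFU were excluded.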
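Note: ATP exposure 15 min at 22 °C before imaging.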

Sequence	switch fluorescence ratio
GGGGGGACAG	1 ± 0.037
GGGGGGACCT	1.06 ± 0.043
GGGGGGACTG	1.06 ± 0.077
GGGGGGAGAA	1.01 ± 0.039
GGGGGGAGAT	1.04 ± 0.077
GGGGGGAGCG	1 ± 0.021
GGGGGGATAA	1.08 ± 0.21
GGGGGGATAT	1.05 ± 0.097
GGGGGGATTT	1.02 ± 0.063
GGGGGGCCAT	1.01 ± 0.025
GGGGGGCGAC	1.02 ± 0.019
GGGGGGCGTG	0.993 ± 0.027
GGGGGGCTTG	1.02 ± 0.043
GGGGGGGAAA	0.99 ± 0.035
GGGGGGGACG	0.962 ± 0.055
GGGGGGGAGA	1.02 ± 0.029
GGGGGGGCGC	1.02 ± 0.035
GGGGGGGGC	0.989 ± 0.061
GGGGGGGGCA	0.985 ± 0.024
GGGGGGGGCT	1 ± 0.045
GGGGGGGGGT	1.01 ± 0.038
GGGGGGGTGG	1 ± 0.033
GGGGGGGTTA	0.992 ± 0.025
GGGGGGTCCA	1.01 ± 0.023
GGGGGGTCGA	1 ± 0.021

Sequence	switch fluorescence ratio
GGGGGGTCTA	1.02 ± 0.024
GGGGGGTGTG	0.986 ± 0.025
GGGGGGTTAT	0.993 ± 0.026
GGGGGTAACT	1 ± 0.034
GGGGGTACGA	1.01 ± 0.052
GGGGGTAGAC	1.01 ± 0.026
GGGGGTAGCA	1.05 ± 0.077
GGGGGTAGCG	1.02 ± 0.028
GGGGGTAGGG	1.03 ± 0.073
GGGGGTAGTT	1 ± 0.032
GGGGGTATGA	1.02 ± 0.022
GGGGGTCATT	0.9511 ± 0.0024
GGGGGTCGC	1 ± 0.065
GGGGGTCGGA	1.03 ± 0.043
GGGGGTGCGA	1.01 ± 0.026
GGGGGTGCTC	1.01 ± 0.023
GGGGGTGGAG	1 ± 0.041
GGGGGTGGCC	0.952 ± 0.098
GGGGGTGGTA	0.99 ± 0.045
GGGGGTGGTT	0.99 ± 0.037
GGGGGTGTTC	0.991 ± 0.028
GGGGGTGTTG	1 ± 0.04
GGGGGTTATG	1.01 ± 0.024
GGGGGTTATT	0.989 ± 0.051
GGGGGTTCAT	0.979 ± 0.013

Sequence	switch fluorescence ratio
GGGGGTTTTC	1.01 ± 0.04
GGGGTAAAAT	1.01 ± 0.035
GGGGTAAACA	0.99 ± 0.038
GGGGTAACGG	0.987 ± 0.036
GGGGTAAGAC	1.02 ± 0.036
GGGGTAAGCG	0.978 ± 0.033
GGGGTAAGCT	0.998 ± 0.023
GGGGTAATGC	1.34 ± 0.18
GGGGTACCCA	0.993 ± 0.018
GGGGTAGAAA	0.969 ± 0.013
GGGGTAGAGT	0.98 ± 0.017
GGGGTAGATA	1.01 ± 0.012
GGGGTAGCGC	0.974 ± 0.018
GGGGTAGCTG	0.962 ± 0.012
GGGGTAGGCA	0.9742 ± 0.0033
GGGGTAGTTA	0.9743 ± 0.0066
GGGGTATACT	1.021 ± 0.0052
GGGGTATAGG	0.9746 ± 0.008
GGGGTATATG	0.995 ± 0.027
GGGGTATGGA	0.989 ± 0.023
GGGGTATTAG	0.991 ± 0.03
GGGGTCAAGC	1.01 ± 0.03
GGGGTCAGCG	0.974 ± 0.012
GGGGTCAGGA	1.03 ± 0.029
GGGGTCCGGT	1.06 ± 0.14

Sequence	switch fluorescence ratio
GGGGTCGGCT	0.974 ± 0.077
GGGGTCGGGG	1.03 ± 0.041
GGGGTCTACC	0.974 ± 0.014
GGGGTGAGCT	0.981 ± 0.03
GGGGTGAGTA	0.98 ± 0.053
GGGGTGCCGG	0.977 ± 0.092
GGGGTGGAAT	1.03 ± 0.012
GGGGTGGCGC	0.964 ± 0.036
GGGGTGGCTG	0.955 ± 0.023
GGGGTGGGAA	0.9795 ± 0.0094
GGGGTGGGAC	1.044 ± 0.006
GGGGTGGGCT	0.956 ± 0.031
GGGGTGTGGG	1 ± 0.018
GGGGTTACAT	0.9919 ± 0.0072
GGGGTTAGGT	1.01 ± 0.031
GGGGTTCAGA	0.9846 ± 0.0041
GGGGTTCCTT	1 ± 0.034
GGGGTTCTAG	0.999 ± 0.0042
GGGGTTCTTA	1.02 ± 0.091
GGGGTTCTTT	1.09 ± 0.14
GGGGTTGGAC	0.9851 ± 0.0016
GGGGTTGGAG	0.979 ± 0.022
GGGGTTGTCG	0.989 ± 0.1
GGGGTTTATA	0.997 ± 0.026
GGGGTTTCGT	1.01 ± 0.067

Sequence	switch fluorescence ratio
GGGGTTTGAG	1.001 ± 0.0057
GGGGTTTTAG	1.01 ± 0.018
GGGTAAAAAA	1.02 ± 0.045
GGGTAAAGAT	1.02 ± 0.021
GGGTAAAGGG	1 ± 0.045
GGGTAAAGTT	1.01 ± 0.027
GGGTAAATCT	1.04 ± 0.026
GGGTAACCGA	0.9832 ± 0.0019
GGGTAACGGC	1.01 ± 0.089
GGGTAAGAAA	0.9865 ± 0.0041
GGGTAAGATC	1.022 ± 0.0083
GGGTAAGTTT	1.007 ± 0.0044
GGGTAATGGG	0.982 ± 0.024
GGGTAATTAC	1.048 ± 0.0053
GGGTAATTTG	1 ± 0.03
GGGTACCGTA	0.959 ± 0.068
GGGTACTGTA	1.09 ± 0.041
GGGTACTGTG	0.971 ± 0.015
GGGTACTTAG	1.05 ± 0.041
GGGTAGAAAG	0.97 ± 0.013
GGGTAGAATT	1.03 ± 0.039
GGGTAGCGGG	1.01 ± 0.033
GGGTAGGCAG	1.18 ± 0.25
GGGTAGGCGG	0.941 ± 0.029
GGGTAGGGGA	1 ± 0.049

Sequence	switch fluorescence ratio
GGGTAGGGGT	1.02 ± 0.074
GGGTAGGTG	1.13 ± 0.039
GGGTATAAGA	0.9976 ± 0.0075
GGGTATAGGA	0.944 ± 0.033
GGGTATAGTC	1.02 ± 0.074
GGGTATCGGG	0.98857 ± 0.00067
GGGTATCGTA	1.01 ± 0.018
GGGTATCTGT	1.01 ± 0.032
GGGTATGGCC	1.01 ± 0.025
GGGTATGGGT	0.995 ± 0.043
GGGTATGTAA	1.01 ± 0.066
GGGTATTCTG	0.98 ± 0.053
GGGTATTGCA	0.996 ± 0.018
GGGTATTGCG	0.977 ± 0.083
GGGTATTGTA	0.999 ± 0.02
GGGTCAAAGA	0.9705 ± 0.0086
GGGTCAAAGT	1.01 ± 0.013
GGGTCAATGG	1.04 ± 0.031
GGGTCAGAAA	1.04 ± 0.11
GGGTCAGGCT	0.981 ± 0.027
GGGTCATGGG	0.989 ± 0.033
GGGTCCAAAT	1.02 ± 0.04
GGGTCCAAGG	1.03 ± 0.029
GGGTCCCCGC	1.12 ± 0.056
GGGTCGCCTG	0.992 ± 0.033

Sequence	switch fluorescence ratio
GGGTCGTAGG	1.002 ± 0.0011
GGGTCTCCAT	1.02 ± 0.03
GGGTCTGGAG	1 ± 0.034
GGGTCTGGGG	0.995 ± 0.022
GGGTCTTCTC	1.01 ± 0.053
GGGTCTTGTG	0.989 ± 0.022
GGGTGAAATG	0.994 ± 0.023
GGGTGAACTT	0.988 ± 0.033
GGGTGACATT	0.997 ± 0.094
GGGTGAGAGG	0.9944 ± 0.0075
GGGTGAGGCA	0.9988 ± 0.0086
GGGTGATATT	0.996 ± 0.026
GGGTGATCGT	0.997 ± 0.013
GGGTGATGGC	1.01 ± 0.013
GGGTGCAAGC	1.058 ± 0.0049
GGGTGCATGC	1.07 ± 0.084
GGGTGCGGCT	1.11 ± 0.14
GGGTGCGGGC	1.04 ± 0.098
GGGTGGACAC	0.947 ± 0.065
GGGTGGAGTT	0.9672 ± 0.0046
GGGTGGATGA	1.03 ± 0.042
GGGTGGATTG	0.983 ± 0.039
GGGTGGGATG	0.984 ± 0.017
GGGTGGGCGG	0.974 ± 0.022
GGGTGGGCTC	0.971 ± 0.026

Sequence	switch fluorescence ratio
GGGTGGGGGT	1.03 ± 0.018
GGGTGGGTA	1.03 ± 0.03
GGGTGGGTTA	1.01 ± 0.038
GGGTGGTAAG	0.997 ± 0.051
GGGTGGTCTG	1.01 ± 0.031
GGGTGGTGGT	0.981 ± 0.043
GGGTGTCAGC	1.02 ± 0.017
GGGTGTGCGC	1.0134 ± 5.8e-05
GGGTGTGCGG	0.972 ± 0.038
GGGTGTGGG	0.986 ± 0.05
GGGTGTGTGG	1 ± 0.017
GGGTGTTAAC	0.981 ± 0.057
GGGTGTTAGT	1 ± 0.016
GGGTGTTCGG	0.979 ± 0.017
GGGTTAAGAT	0.997 ± 0.0054
GGGTTAAGTG	1.02 ± 0.018
GGGTTAGAGA	0.9668 ± 0.0032
GGGTTAGAGG	0.9959 ± 0.0071
GGGTTAGATC	1.03 ± 0.039
GGGTTAGCTT	0.98 ± 0.031
GGGTTAGTTG	0.995 ± 0.046
GGGTTATTTT	0.999 ± 0.043
GGGTTCGACA	0.998 ± 0.019
GGGTTCTAGT	0.9972 ± 0.008
GGGTTCTTAC	0.999 ± 0.011
